We go through 120 sequences from the supplement of paper PMC10126150.

± gives the standard deviation of the averaged measurements.
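Further: ATP exposure 15 min at 22 °C before imaging.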

For the data set, the system named is ATP. Kind of data set: switch fluorescence ratio, 500 uM ATP over buffer (Cy3 cluster intensity, sum of 5 cycles each) (fold (ratio)); higher = stronger signal-on switching upon ATP binding; sequences stand for … in TCGTCGGCAGCGTCAGATGTGTATAAGAGACAGTTTTTTTTTTTTTTTTTTTTTTTTT…TC. To be noted: aptamer strand: ATP DNA aptamer (quencher-CACCTGGGGGAGTATTGCGGAGGAAGG + anchor), 100 nM annealed; ATP concentration: 500 uM. Summed up: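 Per cluster, summed Cy3 intensity from the target cycles was divided by that from the buffer cycles to give the fluorescence ratio, then averaged per switch-domain sequence. Clusters outside 100-1000 RFU were excluded. The Cy3-labelled switching-strand clusters, on a modified Illumina MiSeq flow-cell, were annealed to 100 nM quencher-labelled ATP aptamer and imaged in selection buffer, then after 15 min with 500 uM ATP at 22 °C, for five cycles with NaOH stripping and re-annealing between them.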
For CGGTTATGGC, the switch fluorescence ratio was found to be 0.978 ± 0.019.

Turning to GGAAAATGTA, the switch fluorescence ratio stood at 1.023 ± 0.0063.

On to AGTTTTCCCT, for which the switch fluorescence ratio was found to be 1.01 ± 0.015.

As for AGGGTCAGGA, the switch fluorescence ratio amounted to 0.996 ± 0.021.

Regarding TAATTGGGGC, the switch fluorescence ratio came to 1.02 ± 0.012.

As for AAGATTTGTT, the switch fluorescence ratio was determined as 0.978 ± 0.021.

For the sequence TTAATTCATT, the switch fluorescence ratio worked out at 1.01 ± 0.016.

As to TGCTCTGCTA, the switch fluorescence ratio came out at 1.683 ± 0.0023.

With ACAAAGATGA, the switch fluorescence ratio turned out to be 0.973 ± 0.015.

Consider ACATAGAACG, for which the switch fluorescence ratio stood at 1.06 ± 0.038.

Take GAATTGTTCG: the switch fluorescence ratio worked out at 0.985 ± 0.051.

For TCGTTCAATC, the switch fluorescence ratio turned out to be 1.314 ± 0.01.

On to ATGGGGGTTT, for which the switch fluorescence ratio stood at 0.984 ± 0.042.

Regarding ACTGGAGTTT, the switch fluorescence ratio worked out at 1.01 ± 0.023.

As to CATGGGCTGG, the switch fluorescence ratio came out at 0.9965 ± 0.001.

For the sequence TATGACGCAG, the switch fluorescence ratio came out at 0.993 ± 0.011.

On to CGGCTTGGT, for which the switch fluorescence ratio is 1.02 ± 0.015.

On to CATTTCGGCG, for which the switch fluorescence ratio turned out to be 0.999 ± 0.044.

On to GGGTAAAGGA, for which the switch fluorescence ratio was 0.985 ± 0.028.

With TAAGTGGGTG, the switch fluorescence ratio worked out at 1.01 ± 0.027.

Regarding GATGGGTTTT, the switch fluorescence ratio is 0.997 ± 0.062.

Take TGATAGAGCC: the switch fluorescence ratio was found to be 1.01 ± 0.023.

For the sequence TGCGAGTATC, the switch fluorescence ratio came out at 1.02 ± 0.018.

On to CAGTGGGCGT, for which the switch fluorescence ratio is 1.04 ± 0.026.

Regarding TCTGAGGGGG, the switch fluorescence ratio was 1 ± 0.027.

As for GGAAGATTCG, the switch fluorescence ratio was determined as 0.984 ± 0.03.

Take TTACAGTTGT: the switch fluorescence ratio is 1.01 ± 0.038.

Consider TGAGTGCCGG, for which the switch fluorescence ratio was determined as 1.18 ± 0.25.

For the sequence GCTTTTGCGG, the switch fluorescence ratio was 0.981 ± 0.045.

Take CTATAAACGG: the switch fluorescence ratio came to 1.03 ± 0.054.

For AGTATATAGG, the switch fluorescence ratio came to 0.986 ± 0.018.

Consider GGTGTTTCGC, for which the switch fluorescence ratio stood at 0.994 ± 0.0095.

Turning to GGGATAAGAA, the switch fluorescence ratio was 0.992 ± 0.02.

For the sequence TTAACGAGTG, the switch fluorescence ratio was determined as 0.999 ± 0.022.

As for AGGGAGTTTG, the switch fluorescence ratio came out at 0.983 ± 0.021.

Regarding CGGGTCATTT, the switch fluorescence ratio was 0.9691 ± 0.0035.

With GATTATGCTC, the switch fluorescence ratio amounted to 1.01 ± 0.015.

TTTGGGTGTC: the switch fluorescence ratio is 0.979 ± 0.014.

In the case of CGGTGAAGGG, the switch fluorescence ratio worked out at 0.994 ± 0.027.

For TTTATATGCG, the switch fluorescence ratio worked out at 1 ± 0.027.

On to GGGAAATATT, for which the switch fluorescence ratio was determined as 1.06 ± 0.14.

As to TTATGGACGT, the switch fluorescence ratio came out at 1.01 ± 0.02.

Take ATGGGGTCCA: the switch fluorescence ratio was determined as 0.976 ± 0.042.

On to TCGGGTCATG, for which the switch fluorescence ratio was determined as 1.04 ± 0.04.

As to TGGGTAGAAG, the switch fluorescence ratio was 0.9916 ± 0.0014.

Consider ATGAGGGGGT, for which the switch fluorescence ratio came to 1.03 ± 0.024.

For the sequence GACGTGATCC, the switch fluorescence ratio is 2.5 ± 0.8.

Consider TTGGGGGACA, for which the switch fluorescence ratio amounted to 1.01 ± 0.014.

As for ATTAGACTTG, the switch fluorescence ratio is 1.01 ± 0.065.

In the case of GCGATTTTTT, the switch fluorescence ratio worked out at 0.974 ± 0.021.

Consider AAGAGGGGGA, for which the switch fluorescence ratio came to 0.996 ± 0.042.

In the case of ACGCGACGGA, the switch fluorescence ratio turned out to be 1.07 ± 0.079.

As for ATGCAGGCGG, the switch fluorescence ratio worked out at 0.9811 ± 0.001.

Regarding CTGGGGAGGT, the switch fluorescence ratio came to 0.9946 ± 0.0044.

As to TGCGTCAACT, the switch fluorescence ratio turned out to be 1.01 ± 0.023.

In the case of TATTGATTTG, the switch fluorescence ratio was determined as 1.02 ± 0.019.

AGAAAGGGCG: the switch fluorescence ratio was 0.94 ± 0.037.

With TAGGATTTAG, the switch fluorescence ratio came out at 0.994 ± 0.039.

In the case of AGGACAGGGT, the switch fluorescence ratio is 0.972 ± 0.011.

ATCGTTAAGC: the switch fluorescence ratio amounted to 1.03 ± 0.022.

For the sequence CAAAGTACGT, the switch fluorescence ratio came out at 1.18 ± 0.043.

On to ACAACGGGGT, for which the switch fluorescence ratio was 1.01 ± 0.046.

For the sequence GGGGGTCGAC, the switch fluorescence ratio was 0.996 ± 0.043.

Consider AATCCTTTTT, for which the switch fluorescence ratio was found to be 1.004 ± 0.0084.

On to AGGCGGAAGT, for which the switch fluorescence ratio is 1.014 ± 0.0031.

With GGGATCTTGA, the switch fluorescence ratio was 1.07 ± 0.051.

For the sequence TTTGTGAGT, the switch fluorescence ratio was 0.979 ± 0.017.

Take GCATAAGAAA: the switch fluorescence ratio came to 1.03 ± 0.018.

In the case of TGGGGTCAGC, the switch fluorescence ratio was determined as 1.001 ± 0.0097.

Turning to TCAAGTTATT, the switch fluorescence ratio came out at 0.973 ± 0.0099.

As for AGCGTTCTGG, the switch fluorescence ratio is 1.04 ± 0.041.

Regarding TACTGTGGTT, the switch fluorescence ratio was 1 ± 0.018.

With CTAGAGGGGA, the switch fluorescence ratio turned out to be 1.14 ± 0.2.

As for GCTCTTGACA, the switch fluorescence ratio was found to be 1 ± 0.011.

In the case of TTCTTAGTGT, the switch fluorescence ratio worked out at 0.97 ± 0.027.

For the sequence AGGGTTTCAG, the switch fluorescence ratio was 0.98 ± 0.026.

For the sequence TTTATAGCGA, the switch fluorescence ratio was 1.63 ± 0.54.

Consider AAGGGGACTT, for which the switch fluorescence ratio is 1.02 ± 0.037.

Consider TGTTAAATGA, for which the switch fluorescence ratio was determined as 0.97 ± 0.013.

AAAAGAGGTG: the switch fluorescence ratio turned out to be 1.08 ± 0.034.

For TTTTTGGCAG, the switch fluorescence ratio turned out to be 0.971 ± 0.024.

In the case of GGGTACGGTG, the switch fluorescence ratio turned out to be 1.07 ± 0.022.

On to CGAAGCTTTT, for which the switch fluorescence ratio stood at 1.089 ± 0.003.

Take GCATATCTGT: the switch fluorescence ratio amounted to 1.0296 ± 0.00023.

For TTGGTCGCCC, the switch fluorescence ratio turned out to be 1.08 ± 0.17.

Take AGCTGGTCGT: the switch fluorescence ratio is 0.97265 ± 0.00075.

Consider CGTAGACTGC, for which the switch fluorescence ratio is 1.06 ± 0.024.

Regarding TAAGGGTGTA, the switch fluorescence ratio came out at 0.9934 ± 0.004.

As to GCCTGGGAAG, the switch fluorescence ratio came out at 0.976 ± 0.036.

For the sequence GGGCAAGGAG, the switch fluorescence ratio was 1.01 ± 0.02.

As to TATTTTAGTG, the switch fluorescence ratio was found to be 0.996 ± 0.025.

With GGAGTTATAT, the switch fluorescence ratio stood at 1.105 ± 0.01.

On to CCGTGCACGG, for which the switch fluorescence ratio is 0.978 ± 0.021.

For ACATGGAGGG, the switch fluorescence ratio turned out to be 1.01 ± 0.057.

For the sequence TCATTTGTGC, the switch fluorescence ratio was determined as 1.01 ± 0.039.

As to ATTCATTTTT, the switch fluorescence ratio came to 1.004 ± 0.01.

GCCCTGTATT: the switch fluorescence ratio was 1.015 ± 0.0048.

Regarding GAGGGACTTG, the switch fluorescence ratio turned out to be 0.98 ± 0.012.

As for GTAATATTAA, the switch fluorescence ratio was 1.0073 ± 0.00065.

On to GGGATTATAT, for which the switch fluorescence ratio was found to be 1.02 ± 0.032.

On to ATTCTGTGTG, for which the switch fluorescence ratio was found to be 0.9648 ± 0.0023.

Regarding AGTGTTCGGG, the switch fluorescence ratio came out at 1 ± 0.043.

Take GGGAAGAGAG: the switch fluorescence ratio was 0.985 ± 0.021.

On to CGTTTTATAG, for which the switch fluorescence ratio was determined as 0.9973 ± 0.0071.

On to AGGGGTGGAA, for which the switch fluorescence ratio amounted to 0.975 ± 0.022.

Take AGGGATCTTT: the switch fluorescence ratio was determined as 0.963 ± 0.038.

CGCAGAGGCT: the switch fluorescence ratio amounted to 1.06 ± 0.044.

Regarding CTTGGTAATA, the switch fluorescence ratio amounted to 1.062 ± 0.0066.

With TTACGAGGGG, the switch fluorescence ratio stood at 0.994 ± 0.024.

TAAGTATTGT: the switch fluorescence ratio amounted to 1.012 ± 0.0084.

With CGAGGAAATG, the switch fluorescence ratio amounted to 1.06 ± 0.011.

On to ATCAAGTCTT, for which the switch fluorescence ratio worked out at 0.99 ± 0.016.

For TGAAATAATT, the switch fluorescence ratio came out at 0.9791 ± 0.0017.

Regarding GAACGTTGGG, the switch fluorescence ratio came to 0.993 ± 0.033.

On to TTAGACCGGA, for which the switch fluorescence ratio amounted to 1.02 ± 0.056.

With GATGTAGTGG, the switch fluorescence ratio was found to be 1.029 ± 0.0055.

For the sequence GTGAATGTAT, the switch fluorescence ratio stood at 1.02 ± 0.021.

For TTATTCTCGG, the switch fluorescence ratio stood at 1.04 ± 0.068.

As to AAACGTAATA, the switch fluorescence ratio came to 1.31 ± 0.014.

Turning to AAGCGAGTTC, the switch fluorescence ratio stood at 0.9981 ± 0.0089.
